Experimental data reported in the supplement of paper PMC10567573.

B1: CAMK2A (parent)
chain: ILLVGYPPFWDEDQHRLYKQIKAG
B2: PPP2R2B (parent)
chain: RNTKRDVTLEASRENSKPRAILKP

Variants of: B1
Assay: protein stability index of a GFP-peptide fusion (GPS, HEK-293T) (PSI 1-6); higher = more stable
Conditions: c terminus: a fixed tail appended
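Further: lentivirally expressed fusions sorted by FACS into six bins by GFP to DsRed ratio, PSI derived from sequencing read proportions per bin multiplied by bin number.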

Protein stability index, by site and new letter:
K22: P 2.74; F 2.94; Q 3.46; N 2.6; M 2.6; W 2.2; R 1.91; D 1.97; Y 2.43; C 2.31; E 1.96; A 2.87; V 2.15; G 1.63; T 2.52; I 2.55; S 3.22; H 1.52
A23: F 2.23; M 2.06; I 2.82; T 1.27; Q 2.82; L 2.11; E 2.26; K 2.1; S 2.46; V 1.98; H 1.58; G 1.72; W 3.2; D 1.98; N 2.67; P 1.8; R 2.21; Y 2.73
G24: E 1.36; I 2.71; R 2.4; F 1.51; M 1.58; T 2.58; H 2.08; K 1.7; V 2.81; S 2.52; C 2.27; D 1.87; P 1.65; Q 3.66; Y 2.39; W 1.96; L 1.8; A 2.05; N 3.14

Variants of: B2
Assay: as above
Conditions: c terminus: a fixed tail appended

Protein stability index: each site, then its substitutions
R5: E 5.03; P 4.79; A 5.17; W 3.87; V 4.91; C 4.43; Y 4.26; S 4.49; H 4.85; G 5.07; L 4.4; D 4.68; N 4.92; M 3.86; K 4.62; T 4.94; F 4.44; Q 4.54; I 4.19
E14: L 4.04; N 4.72; R 4.14; I 3.72; K 4.12; F 3.88; T 4.58; C 3.9; P 4.3; V 3.79; Q 4.97; M 3.88; Y 3.67; W 3.87; G 4.4; S 4.45; D 4.4; A 4.66; H 4.49
L9: R 4.84; H 4.46; G 4.88; N 4.22; C 4.78; Y 4.52; K 4.26; F 4.11; A 4.9; P 4.4; V 4.59; W 4.34; E 4.78; Q 5.07; T 4.96; M 4.84; I 4.38; S 4.89; D 5.09
S12: L 3.96; I 4.07; F 3.58; R 4.41; A 4.12; Q 4.42; Y 4.18; T 4.79; H 4.73; G 5.13; W 3.79; P 4.45; V 4.33; D 4.8; N 4.43; C 3.95; K 4.34; E 4.95; M 4.12
R1: C 4.88; H 4.72; P 4.27; W 4.45; N 4.79; D 4.97; S 4.47; M 4.44; I 4.61; T 4.99; K 4.65; Q 4.81; Y 4.22; L 4.62; F 4.29; E 4.31; G 4.9; A 4.61; V 4.44
D6: S 4.55; V 4.08; K 4.45; A 4.64; P 3.81; R 4.29; Y 3.79; F 3.83; H 4.49; M 4.33; I 3.64; W 3.27; Q 4.46; T 4.34; G 4.44; N 4.55; L 3.94; C 4.29; E 4.49
N15: M 4.09; C 4.13; F 4.66; H 3.94; E 4.92; G 4.49; I 4.59; Q 4.73; P 4.32; D 4.77; L 4.53; K 4.82; A 4.29
A11: H 4.8; R 4.58; L 3.35; D 4.78; T 4.44; Y 3.92; M 4.36; N 4.3; W 3.95; C 4.52; K 4.23; F 3.59; Q 4.28; P 4.23; I 3.92; G 4.49; E 5.24; V 4.49; S 4.67
R13: T 4.07; P 4.46; L 4.44; W 3.56; M 4.64; Q 4.75; H 5.06; V 4.67; F 3.98; C 4.16; E 5.14; A 4.92; G 5.06; S 4.91; K 4.69; N 4.83; Y 4.37; D 5.09; I 4.53
E10: A 4.52; W 2.77; R 4.01; M 3.83; S 4.38; F 3.49; K 4.52; N 4.25; Y 4; G 4.32; V 4.35; Q 4.33; I 4.14; C 3.86; P 4.55; L 3.6; T 3.7; D 4.64; H 4.12
T3: Q 4.75; R 4.45; H 4.4; M 4.35; S 4.61; F 4.17; D 4.81; P 4.53; C 4.55; L 4.64; V 4.57; A 4.87; E 4.88; I 4.45; W 4.05; K 4.91; N 3.95; Y 3.84; G 4.29
V7: I 4.25; F 4.43; G 4.83; T 4.81; C 3.77; M 4.81; L 4.42; N 4.76; R 4.59; H 4.67; A 4.19; S 4.58; W 4.61; Q 4.8; K 4.6; Y 4.63; P 4.98; D 4.86; E 4.46
T8: P 4.76; M 4.34; D 5.02; I 4.35; R 4.68; A 4.72; S 4.3; H 4.35; V 4.25; F 3.88; Q 4.62; C 4.2; K 4.86; G 4.54; L 4.62; N 4.98; W 3.66; Y 4.31; E 4.9
K4: F 4.42; L 4.61; S 4.92; A 4.43; G 4.61; H 4.84; W 3.39; N 4.77; Y 4.42; I 4.29; E 4.6; Q 4.96; P 4.88; T 4.82; D 4.72; R 4.54; C 3.8; M 4.71; V 4.19
N2: K 4.51; G 4.81; V 4.1; A 4.31; H 4.66; D 4.89; M 4.4; L 3.72; I 4.69; Q 4.06; R 4.02; S 4.62; E 4.82; W 3.34; T 4.42; F 4.51; C 4.27; Y 4.37; P 4.31
